The labels stand for the following.
B1: SC06-252 (scFv)
scFv: EVQLVETGGGLVQPGGSLRLSCAASGLTFSSYAMSWVRQAPGKGLEWVSALSGSTTFYADSVKGRFTISRDNAKNTLYLQMNSLRAEDTAVYYCARGNYYGMDVWGQGTTVTVSSGTGGSGGTGSGTGGSTSYVLTQPPSASGTPGQRVTISCSGSSSNIGKFYVYWYQQFPGAAPKLLIYSNNQRPSGVPDRFSGSKSGTSASLAISGLQSEDEADYYCAAWDGSLNGYVFGTGTKVTVL
B2: SC06-415 (scFv)
scFv: EVQLVESGGGLVQPGRSLRLSCAASGFTFDDYAMHWVRQAPGKGLEWVSGISWNSGSIGYADSVKGRFTISRDNAKNSLYLQMNSLRAEDSAVYYCARGGQRFDFWGQGTLVTVSSGTGGSGGTGSGTGGSTQSALTQPPSASGSPGQSVTISCTGTSSDVGGYNYVSWYQQLPGKAPKLLIYDVNNRPSGVSNRFSGSKSGNTASLTISGLQAEDEAEYYCGSSVGSRLRIFGGGTKLTVL
B3: SC06-429 (scFv)
scFv: QVQLVQSGAEVKNPGESLKISCKGSGYTFTSYWIGWVRQMPGKGLEWMGSIYPGDSDTRYSPSFQGQVTISVDKSISTAYLQWSSLKASDTAMYYCARQYRAGSTTRFDPWGQGTLVTVSSGTGGSGGTGSGTGGSTDVVMTQSPLSLPVTPGEPASISCRSSQSLRHRNGNNYLDWYLQKPGQSPQLLIYLGSNRASGVPDRFSGSGSGTDFTLKISRVEAEDVGIYYCMQALQTPLTFGGGTKVEIK
B4: SC06-402 (scFv)
scFv: QVQLVQSGAEVKKPGESLKISCKGSGYSFTSYWIGWVRQMPGKGLEWMGIIYPGDSDTRYSPSFQGQVTISADKSISTAYLQWSSLKASDTAMYYCARWGGVCSSTSCPNRDAFDIWGQGTMVTVSSGTGGSGGTGSGTGGSTQSALTQPRSVSGSPGQSVTISCTGTSSDVGGYNYVSWYQQHPGKAPKLMIYDVSNRPSGVSNRFSGSKSGNTASLTISGLQAEDEAEFHCSSYRSSGASPVVFGGGTKLTVL
B5: SC06-388 (scFv)
scFv: EVQLVETGAEVKKPGESLRISCKGSGYSFTSYWIAWVRQMPGKGLEWMGVIYPGDSDARYSPSFQGQVTMSVDKSISTAYLQWSSLKASDTAMYYCAKLRSKNTGLDYWGQGTLVTVSSGTGGSGGTGSGTGGSTQSALTQPPSASGSPGQSVTISCTGTSSDVGGYNFVSWYQQHPGKAPKLMIYEVSNRPSGVPDRFSGSKSGNTASLTVSGLQAEDEADYYCSSYAGNNNLAFGGGTQLTVL
B6: SC06-432 (scFv)
scFv: QLQLQESGPGLVKPSQTLSLTCTVSGGSISSGGYYWSWIRQHPGKGLEWIGYIYYSGSTYYNPSLKSRVTISVDTSKNQFSLKLSSVTAADTAVYYCARERILDRMNDYWGQGTLVTVSSGTGGSGGTGSGTGGSTQSVVTQPPSVSGAPGQRVTISCTGSSSNIGAGYDVHWYQQLPGTAPKLLIYGNSNRPSGVPDRFSGSKSGTSASLAITGLQAEDEADYYCQSSDSSLNILFGGGTKLTVL
B7: SC06-389 (scFv)
scFv: QVQLVQSGAEVKKPGESLKISCKGSGYSFSTYWIGWVRQMPGKGLEWMGIIYPGDSDTRYSPSFQGQVTISADKSISTAHLQWSSLKASDTAMYYCARPGPRGYNHGFDYWGQGTLVTVSSGTGGSGGTGSGTGGSTSSELTQDPAESVALGQTVKITCQGDSLRRYYASWYQQKPGQAPVLVIYGKNNRPSGIPDRFSGSRSGNTASLTITGAQAEDEAVYYCNSRDSSGNSVVFGGGTKLTVL
B8: SC06-409 (scFv)
scFv: EVQLVQSGAEVKKPGESLKISCKGSGYSFTNYWIGWVRQMPGKGLEWMGIIYPGDSDTRYSPSFQGQVTISADKSISTAYLQWSSLKASDTAMYYCARHTQNKNGMNTFDIWGQGTMVTVSSGTGGSGGTGSGTGGSTQSALTQPPSASGSPGQSVTISCTGTSSDIGGYNYVSWYQQHPGKAPKLMIYEVSNRPPGVSNRFSGSKSGNTASLTISGLQAEDEADYYCSSYSTTTTRVIFGGGTKLTVL

The target of the test is T1, BSA (bovine serum albumin) (bovine (송아지 혈청 알부민), UniProt P02769 25-607).
T1 construct: Negative control antigen of the phage ELISA; also called 송아지 혈청 알부민
T1 sequence (P02769 25-607 limits assumed): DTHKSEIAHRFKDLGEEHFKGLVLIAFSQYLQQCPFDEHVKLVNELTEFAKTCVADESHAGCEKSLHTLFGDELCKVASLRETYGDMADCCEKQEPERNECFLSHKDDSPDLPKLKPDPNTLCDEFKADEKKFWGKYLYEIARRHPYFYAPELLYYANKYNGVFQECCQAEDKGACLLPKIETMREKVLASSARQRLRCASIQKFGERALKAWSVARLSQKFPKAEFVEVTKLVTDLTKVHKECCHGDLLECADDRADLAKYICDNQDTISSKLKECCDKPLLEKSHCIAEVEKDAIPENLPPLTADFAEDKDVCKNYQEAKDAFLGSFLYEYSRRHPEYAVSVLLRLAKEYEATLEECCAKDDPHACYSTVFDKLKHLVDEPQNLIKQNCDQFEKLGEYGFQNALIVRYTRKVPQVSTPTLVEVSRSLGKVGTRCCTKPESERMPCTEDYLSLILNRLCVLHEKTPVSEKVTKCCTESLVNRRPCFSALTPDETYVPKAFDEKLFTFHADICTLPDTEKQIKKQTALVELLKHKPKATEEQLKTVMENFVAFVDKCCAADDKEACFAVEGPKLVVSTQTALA
Put plainly: phage ELISA, 1% BSA coated, anti-M13 peroxidase, OD 492 nm.
For the molecule B1, the binding result was “no binding”.
For B2 the value was “no binding”.
For B3 the value was “no binding”; for B4, “no binding”; for B5, “no binding”.
In the case of B6, the binding result is listed as “no binding”.
For B7 the value was “no binding”.
As for B8, the binding result is listed as “no binding”.
